The chains are these.
B1: Protein disulfide-isomerase A3 (Homo sapiens), P30101 (parent)
chain: MRLRRLALFPGVALLLAAARLAAASDVLELTDDNFESRISDTGSAGLMLVEFFAPWCGHCKRLAPEYEAAATRLKGIVPLAKVDCTANTNTCNKYGVSGYPTLKIFRDGEEAGAYDGPRTADGIVSHLKKQAGPASVPLRTEEEFKKFISDKDASIVGFFDDSFSEAHSEFLKAASNLRDNYRFAHTNVESLVNEYDDNGEGIILFRPSHLTNKFEDKTVAYTEQKMTSGKIKKFIQENIFGICPHMTEDNKDLIQGKDLLIAYYDVDYEKNAKGSNYWRNRVMMVAKKFLDAGHKLNFAVASRKTFSHELSDFGLESTAGEIPVVAIRTAKGEKFVMQEEFSRDGKALERFLQDYFDGNLKRYLKSEPIPESNDGPVKVVVAENFDEIVNNENKDVLIEFYAPWCGHCKNLEPKYKELGEKLSKDPNIVIAKMDATANDVPSPYEVRGFPTIYFSPANKKLNPKKYEGGRELSDFISYLQREATNPPVIQEEKPKKKKKAQEDL
partner: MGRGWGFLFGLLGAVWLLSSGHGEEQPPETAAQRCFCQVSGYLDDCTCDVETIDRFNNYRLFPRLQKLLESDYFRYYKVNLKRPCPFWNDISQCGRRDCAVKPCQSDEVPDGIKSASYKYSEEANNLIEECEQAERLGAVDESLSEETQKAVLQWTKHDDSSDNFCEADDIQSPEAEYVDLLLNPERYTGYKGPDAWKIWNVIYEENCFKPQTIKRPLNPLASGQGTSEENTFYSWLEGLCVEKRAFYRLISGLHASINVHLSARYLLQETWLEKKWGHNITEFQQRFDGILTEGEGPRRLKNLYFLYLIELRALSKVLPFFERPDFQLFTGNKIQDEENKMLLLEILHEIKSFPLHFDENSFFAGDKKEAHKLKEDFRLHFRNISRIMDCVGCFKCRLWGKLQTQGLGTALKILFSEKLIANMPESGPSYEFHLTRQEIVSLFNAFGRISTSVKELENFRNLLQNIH

This assay covers variants of B1. As to conditions: with ero1a_human ERO1A.
For the variant C409A, the “effect of a mutation on the interaction” value is listed as “decreasing interaction”.

The values are drawn from IntAct's records for PubMed 17170699.
